Measured values taken from patent publication US20030157712.

Biological target: GST-EphB1cy, self-phosphorylated in vitro (+ATP) (UniProt P54762)
Sequence (P54762 564-984): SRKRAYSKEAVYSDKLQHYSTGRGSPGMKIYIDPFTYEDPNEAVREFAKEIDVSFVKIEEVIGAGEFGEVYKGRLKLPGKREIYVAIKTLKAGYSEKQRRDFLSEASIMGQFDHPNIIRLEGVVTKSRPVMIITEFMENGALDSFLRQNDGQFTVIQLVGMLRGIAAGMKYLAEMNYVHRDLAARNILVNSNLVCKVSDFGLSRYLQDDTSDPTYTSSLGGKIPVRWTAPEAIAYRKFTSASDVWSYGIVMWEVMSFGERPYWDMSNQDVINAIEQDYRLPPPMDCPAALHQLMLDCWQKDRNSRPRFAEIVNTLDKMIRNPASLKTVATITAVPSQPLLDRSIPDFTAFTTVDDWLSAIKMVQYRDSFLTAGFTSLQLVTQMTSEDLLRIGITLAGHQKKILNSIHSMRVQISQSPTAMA

Substance: purified recombinant LMW-PTP (A isoform)
- in vitro tyrosine phosphorylation of LMW-PTP: EphB1 receptor tyrosine kinase phosphorylates LMW-PTP in vitro
